Consider 30 sequences from the nanobody polyreactivity screen of Harvey et al. (2022).

The nature of the data set: yeast display, Sf9 membrane polyspecificity reagent, FACS + sequencing; frameworks hold sequencing errors. The essentials:
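Nanobodies came from a synthetic yeast display library in Saccharomyces cerevisiae BJ5465, induced with galactose for 36–48 hours and stained for 1 hour at 4 °C with 10% biotinylated, detergent-solubilized Sf9 membrane reagent. Cells were enriched on streptavidin microbeads and then FACS-sorted, with low and high (top ~1%) gates set on anti-HA fluorescence for expression and streptavidin fluorescence for reagent binding. Each polyreactivity label reflects the gate a clone came from. Genes were amplified by colony PCR, sequenced by MiSeq 2 × 250 and filtered by CDR length.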
On to “QVQLVESGGGLVQAGGSLRLSCAASGITFWFYSKGWYRQSPGNERELVAAISRSGSTNYADSVKGRFTISRDNAKNTVYLQMNSLKPEDTAVYYCAASTYKYKLLYYQYDYWGQGTQVTVSS”, for which the “polyreactivity (PSR sort gate)” value is given as “high polyreactivity”.

In the case of “QVQLVESGGGLVQAGGSLPLSCYDSGITIPDYYMGCFRQSPGKERELVAAITYRSGSTYNADSVKGRFTISRDNAKNTVYLQMNSLKQEDTAVFYCAAKRFLLRYYTKQYNYWGLGTQVTVSS”, the “polyreactivity (PSR sort gate)” value is given as “high polyreactivity”.

For “QVQLVESWGGLVQAGGSLRLSCAASGRIFKYNAMGWYRQAPGKERELVAAISGGGSTNYADSVKGRFTISRDNAKNTVYLQMNSLKPEDTAVYYCAASDPFEASQYKYDYWGQGTQVTVSS”, the “polyreactivity (PSR sort gate)” value was “low polyreactivity”.

Take “QVQLVESGGGLVQAGGSLRLSCAASGRTSKVYAMGWYRQAPGKERELVARITSSGVRTYYADSVKGRFTISRDNAKNTVYLQMNSLKPEDTAVYYCAKDARALWLHSGIYDYWGQGTQVTVSS”: the “polyreactivity (PSR sort gate)” value was “low polyreactivity”.

As for “QVQLVESGGGLVQAGGSLRLSCAASGITFGYNAMGWYRQAPGKERELVASISYSGDSTYYADSVKGRFTISRDNAKNTVYLQMNSLKPEDTAVYYCNVRNRPGGEINDYDYWGQGTQVTVSS”, the “polyreactivity (PSR sort gate)” value is “low polyreactivity”.

Turning to “QVQLVESGGGLVQAGGSLRLSCAASGSTFGYYTMGWYRQAHGKERELVAAISWGCGSTYYADSVKGRFTISRDNAKNTVYLQMNSLIPEDTAVYYCARTPVTSYKDDFYYWGQGTQVTVSS”, the “polyreactivity (PSR sort gate)” value is given as “low polyreactivity”.

For “QVQLVESRGGLVQAGGSLRLSCAATGSIFFSNTMGWYRQAPGTEREMVAAITSTGTTNYADSVKGRFTISRDNAKKTVYLQMNSLKPEDTAVFYCAVRARRWRYNYWGQGTQVTVSS”, the “polyreactivity (PSR sort gate)” value is given as “high polyreactivity”.

As to “QVQLVESGGGLDQAGGSLRLSCAASGSTFRYYTMGWYRQAHGKERELVAAISSRGGSTYYADSVKGRFTISRDNAKKTVYLQMNSLKPEDSAVYYCCALYPSWAQRGRDYWGQGTQVSVSS”, the “polyreactivity (PSR sort gate)” value is given as “high polyreactivity”.

As for “QVQLVESWGGLVQAGGSLRLSCAASGFTFFYYDMGWYRQAPGKERQLVAAITWRGGRTYYADSVKGRFTISRDNAKNTVYLQMNSLKPEDTAVYYCNAYWGYAKVGQFDYWGQGTQVTVSS”, the “polyreactivity (PSR sort gate)” value is “high polyreactivity”.

Consider “QVQLVESGGGLVQAGGSLRLSCAASGRTFAPYAMAWYRQAPGKERELVAVISSSGGRTYYADSVKGRFTISRDNAKNTVYLQMNSLKPEDTAVYYCAADVYGYRFFKTGRYDYWGQGSQVTVSS”, for which the “polyreactivity (PSR sort gate)” value is on record as “high polyreactivity”.

In the case of “QVQLVESGGGLVQAGGSLRLSCAASGPISRYNTMGWYRQAPGKERELVAAISYRGGSTYYADSVKGRFTISRDNAKNTVYLQMNSLKPEDTAVYYCNKVRSSVRSGGYGYWGQGTQVTVSS”, the “polyreactivity (PSR sort gate)” value is on record as “high polyreactivity”.

For “QVQLVESGGGLVQAGGSLRLSCAASGYTFINYAMGWYRQAPGKERELVAAITSTGSRTYYADSVKGRFTITRDNAKNTVYLQMNSLKPEDPAVYYCAAQVDRKYRWFNSWGQGTQVNVSS”, the “polyreactivity (PSR sort gate)” value is listed as “high polyreactivity”.

As to “QVQLVESGGGLVQAGGSLRLSCAASGLTLYGYTMGWYRQAPGKERELVATITTGGDSTYYADSVKGRFTISRDNAKNTVYLQMNSLKPEDTAVYYCAAYSYGWDYSYDYWGQGTQVTVSS”, the “polyreactivity (PSR sort gate)” value was “low polyreactivity”.

Turning to “QVQLVESGGGLVQAGGSLRLSCAASGSTFALYAMGWYRQAPGKERELVAAITRGDRTYYADSVKGRFTISRDNAKNTVYLQMNSLKAEDSAVYYCAAGYFGLWVRYDYWGQGSQVTVSS”, the “polyreactivity (PSR sort gate)” value was “low polyreactivity”.

For “QVQLVESGGGLVQAGGSLRLSCAASGSIFRWNAMGWYRQAPGKEREFVAAISGRGGSTYYADSVKGRFTISRDNAKNTVYLQMNSLKPEDTAVYYCAADQAHLATRGFDYWGQGTQVTVSS”, the “polyreactivity (PSR sort gate)” value is listed as “high polyreactivity”.

As to “QVQLVESGGGLVQAGGSLRLSCAASGSTLPGNTMGWYRQAPGKERELVAAISKSGGTTYYADSVKGRFTISRDYAKNTVYLQMNSLKPEDTAVYYCAAKPWVWVYARYGKHPSYDYWGQGTQVTVSS”, the “polyreactivity (PSR sort gate)” value was “high polyreactivity”.

With “QVQLVESGGGLVQAGGSLRLSCAASARTFVWNAMGWYRQAPGKERELVAAIDWSGGSTYYADSVKGRFTISRDNAKNTVYFQMYSLKPEDTAVYYCAVAVWNGSEYWGQGSQVTVSS”, the “polyreactivity (PSR sort gate)” value is listed as “high polyreactivity”.

For “QVQLVESGGGLVQAGGSLRLSCAASGFIFYTKAMGWSRQAPGKERELVATITTSGGRTYYADSVKGRFTISRDNAKNYVYLQMYSMKPEDTAFYYSATRYVVIEYDYWGQGTQVTVSS”, the “polyreactivity (PSR sort gate)” value is recorded as “low polyreactivity”.

Consider “QVQLVESGGGLVQAGGSLRLSCAASGSTFYYYAMGWYRPAPGKERELVAAINYNGGSTHYADSVKGRFTISRDNAKNTVYLQMNSLKPEDTAVYYCAAKYRLSYTHGYWGQGTQVTVSS”, for which the “polyreactivity (PSR sort gate)” value is “low polyreactivity”.

As to “QVQLVESGGGLVQAGGSLRLSCAASGSTFRYYAMGWYRQAPGKERELVAAIDWSGGTTYYADSVKGRFTISRDNAKNTFYLQMNSLKPEDTAVYYCAADSSRRIGEDYWGHGTQVTVSS”, the “polyreactivity (PSR sort gate)” value is recorded as “low polyreactivity”.

For the sequence “QVQLVESGGGLVQAGGSLRLSCAASGSTFYFNAMGWYRQAPGKERELVAGIYSGGSTYYADSVKGRFTISRDNAKNTVYLQMNSLKTEDTAVYYCAATWLVERPFSYTEYGYWGQGTQVTVSS”, the “polyreactivity (PSR sort gate)” value was “low polyreactivity”.

“QVQLVESGGVLVQAGGSLRLSCPASGRTFTYNAMGWYRQAPGKERELVAVITNSGGSTYYADSVKGRFTISRDNPKNTVYLQMNSLKPEDTAVYYCAADYFYRYWYRFYYWGQGTQVTVSS”: the “polyreactivity (PSR sort gate)” value is recorded as “high polyreactivity”.

Consider “QVQLVESGGGLVQAGGSLRLSCAASGSIFDWNALGWYRQAPGKERELVASITGSGGGTNYADSLKGRFTISRDNAKNTVYFQMNSLNPEDTAVYFCNADGLNLDGHEYWGQATQVTVSS”, for which the “polyreactivity (PSR sort gate)” value is “low polyreactivity”.

Consider “QVQLVESGGGLVQAGGSLRLSCAASGRIFPHYAKGWYRQAPGKERELVAAISSGGRTNYADSVKGRFTISRDNAKNTVYIQMNSLKPEDTAVYYYAVDDYVYEMDYWGQGTQVTVSS”, for which the “polyreactivity (PSR sort gate)” value is “high polyreactivity”.

For the sequence “QDQLVESRGGLVQAGGSLRLSCAASGSTLSGNAMGWYRQAPGKERELVAAITSSGGRTYYADSVKGRFTISRDNAKNTVYLQMNSLKPEDTAVYYCAKDRYGWGQGTQVTVSS”, the “polyreactivity (PSR sort gate)” value was “high polyreactivity”.

Take “QVQLVESGGGLVQAGGSLRISCAASGNIFDIYAMGWYRQAPGKERELVAAITSGVRTYYADSVKGRFTISRDNAKNTVYLQMNSLKPEDTSVYYCNAVWRRSHAYGYWGQGTQVTVSS”: the “polyreactivity (PSR sort gate)” value is recorded as “low polyreactivity”.

As to “QVQLVESGGGLVQAGGSLRLSCAASGITFSYNAMGWYRQAPGKERELVAAISSNSDSTYYADSVKGRFTISRDNAKNTVYLQMISLKPEDTAVYYCADDTPDAPDYSGFYYWGQGTQVTVSS”, the “polyreactivity (PSR sort gate)” value is reported as “low polyreactivity”.

Turning to “QVQLVESGGGLVQAGGSLRLSCAASGRIFGANARGWYRQAPGKERELVATITYGGTSTYYADSVKGRFTISRDNAKNTVYLQMNSLKPEDTAVYYCAADGYSVFAAILGEYFDYDYWGQGTQVTVSS”, the “polyreactivity (PSR sort gate)” value was “low polyreactivity”.

Regarding “QDQLVESGGGLVQAGGSLRLSCAASGRTFRRYTKGWYRQAPGKERELVAAISRGGSTNYADSVKGRFTISRDNAMNTFYLQMNSLKPEDTAVYYCNADYWYDWNSYDYWGQGTQVTVSS”, the “polyreactivity (PSR sort gate)” value was “high polyreactivity”.

With “QVQLVESGGGLVQAGGSLRISCAASGGIFRYVMGWYRQAPGKERELVATISGRGGSTYYADSVKGRFTISRDNAKNTVYLQMNSLKPEDTAVYYCATHSWRRAGYEYWGQGTQVTVSS”, the “polyreactivity (PSR sort gate)” value is listed as “high polyreactivity”.
